“And” between values parts separate entries of the source, which are not always exact repeats. Identical values can stand only once. Numbered stars: 1 amine (or outer) side, 2 acyl side, 3 side chain; on linkers, the order of the positions; unused ones are H or OH. Side chains are listed from the residue outwards. Ends that are not written are not given here. * marks the point of attachment. γGlu = O=C(O)[C@H](CCC(=O)[*:2])N[*:1]; Palmitoyl = CCCCCCCCCCCCCCCC(=O)*

Sequences and labels used below:
T1: human glucose-dependent insulinotropic peptide (gastric inhibitory polypeptide) receptor (human) (UniProt P48546)
T1 sequence (looked up): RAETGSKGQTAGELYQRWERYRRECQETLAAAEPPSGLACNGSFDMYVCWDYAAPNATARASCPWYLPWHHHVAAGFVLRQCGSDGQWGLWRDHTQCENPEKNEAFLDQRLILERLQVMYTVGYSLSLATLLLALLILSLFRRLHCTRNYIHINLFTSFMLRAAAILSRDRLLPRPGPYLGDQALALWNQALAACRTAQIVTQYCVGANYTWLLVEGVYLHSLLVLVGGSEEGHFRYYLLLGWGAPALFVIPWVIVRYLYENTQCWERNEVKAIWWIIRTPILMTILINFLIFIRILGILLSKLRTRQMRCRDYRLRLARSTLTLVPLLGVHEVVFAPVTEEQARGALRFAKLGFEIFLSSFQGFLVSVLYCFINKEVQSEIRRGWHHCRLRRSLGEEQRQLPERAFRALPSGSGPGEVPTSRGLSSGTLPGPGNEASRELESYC

B1: g639 (peptide)
peptide: HSEGTFTSDYSKYLDSK([γGlu-Palmitoyl])RAEDFVEWLVAGG-NH2
modifications: N-terminus assumed
SMILES: CCCCCCCCCCCCCCCC(=O)N[C@@H](CCC(=O)NCCCC[C@H](NC(=O)[C@H](CO)NC(=O)[C@H](CC(=O)O)NC(=O)[C@H](CC(C)C)NC(=O)[C@H](Cc1ccc(O)cc1)NC(=O)[C@H](CCCCN)NC(=O)[C@H](CO)NC(=O)[C@H](Cc1ccc(O)cc1)NC(=O)[C@H](CC(=O)O)NC(=O)[C@H](CO)NC(=O)[C@@H](NC(=O)[C@H](Cc1ccccc1)NC(=O)[C@@H](NC(=O)CNC(=O)[C@H](CCC(=O)O)NC(=O)[C@H](CO)NC(=O)[C@@H](N)Cc1c[nH]cn1)[C@@H](C)O)[C@@H](C)O)C(=O)N[C@@H](CCCNC(=N)N)C(=O)N[C@@H](C)C(=O)N[C@@H](CCC(=O)O)C(=O)N[C@@H](CC(=O)O)C(=O)N[C@@H](Cc1ccccc1)C(=O)N[C@H](C(=O)N[C@@H](CCC(=O)O)C(=O)N[C@@H](Cc1c[nH]c2ccccc12)C(=O)N[C@@H](CC(C)C)C(=O)N[C@H](C(=O)N[C@@H](C)C(=O)NCC(=O)NCC(N)=O)C(C)C)C(C)C)C(=O)O
B2: g681 (peptide)
peptide: HGEGTFTSDYSKYLDSK([γGlu-Palmitoyl])RAEDFVEWLVAGG-NH2
modifications: N-terminus assumed
SMILES: CCCCCCCCCCCCCCCC(=O)N[C@@H](CCC(=O)NCCCC[C@H](NC(=O)[C@H](CO)NC(=O)[C@H](CC(=O)O)NC(=O)[C@H](CC(C)C)NC(=O)[C@H](Cc1ccc(O)cc1)NC(=O)[C@H](CCCCN)NC(=O)[C@H](CO)NC(=O)[C@H](Cc1ccc(O)cc1)NC(=O)[C@H](CC(=O)O)NC(=O)[C@H](CO)NC(=O)[C@@H](NC(=O)[C@H](Cc1ccccc1)NC(=O)[C@@H](NC(=O)CNC(=O)[C@H](CCC(=O)O)NC(=O)CNC(=O)[C@@H](N)Cc1c[nH]cn1)[C@@H](C)O)[C@@H](C)O)C(=O)N[C@@H](CCCNC(=N)N)C(=O)N[C@@H](C)C(=O)N[C@@H](CCC(=O)O)C(=O)N[C@@H](CC(=O)O)C(=O)N[C@@H](Cc1ccccc1)C(=O)N[C@H](C(=O)N[C@@H](CCC(=O)O)C(=O)N[C@@H](Cc1c[nH]c2ccccc12)C(=O)N[C@@H](CC(C)C)C(=O)N[C@H](C(=O)N[C@@H](C)C(=O)NCC(=O)NCC(N)=O)C(C)C)C(C)C)C(=O)O
B3: g600 (peptide)
peptide: HSQGTFTSDYSKYLDSK([γGlu-Palmitoyl])RAQDFVEWLVAGG-NH2
modifications: N-terminus assumed
SMILES: CCCCCCCCCCCCCCCC(=O)N[C@@H](CCC(=O)NCCCC[C@H](NC(=O)[C@H](CO)NC(=O)[C@H](CC(=O)O)NC(=O)[C@H](CC(C)C)NC(=O)[C@H](Cc1ccc(O)cc1)NC(=O)[C@H](CCCCN)NC(=O)[C@H](CO)NC(=O)[C@H](Cc1ccc(O)cc1)NC(=O)[C@H](CC(=O)O)NC(=O)[C@H](CO)NC(=O)[C@@H](NC(=O)[C@H](Cc1ccccc1)NC(=O)[C@@H](NC(=O)CNC(=O)[C@H](CCC(N)=O)NC(=O)[C@H](CO)NC(=O)[C@@H](N)Cc1c[nH]cn1)[C@@H](C)O)[C@@H](C)O)C(=O)N[C@@H](CCCNC(=N)N)C(=O)N[C@@H](C)C(=O)N[C@@H](CCC(N)=O)C(=O)N[C@@H](CC(=O)O)C(=O)N[C@@H](Cc1ccccc1)C(=O)N[C@H](C(=O)N[C@@H](CCC(=O)O)C(=O)N[C@@H](Cc1c[nH]c2ccccc12)C(=O)N[C@@H](CC(C)C)C(=O)N[C@H](C(=O)N[C@@H](C)C(=O)NCC(=O)NCC(N)=O)C(C)C)C(C)C)C(=O)O
B4: g776 (peptide)
peptide: HSQGTFTSDYSKYLDSK([γGlu-Palmitoyl])RARDFVEWLVAGG-NH2
modifications: N-terminus assumed
SMILES: CCCCCCCCCCCCCCCC(=O)N[C@@H](CCC(=O)NCCCC[C@H](NC(=O)[C@H](CO)NC(=O)[C@H](CC(=O)O)NC(=O)[C@H](CC(C)C)NC(=O)[C@H](Cc1ccc(O)cc1)NC(=O)[C@H](CCCCN)NC(=O)[C@H](CO)NC(=O)[C@H](Cc1ccc(O)cc1)NC(=O)[C@H](CC(=O)O)NC(=O)[C@H](CO)NC(=O)[C@@H](NC(=O)[C@H](Cc1ccccc1)NC(=O)[C@@H](NC(=O)CNC(=O)[C@H](CCC(N)=O)NC(=O)[C@H](CO)NC(=O)[C@@H](N)Cc1c[nH]cn1)[C@@H](C)O)[C@@H](C)O)C(=O)N[C@@H](CCCNC(=N)N)C(=O)N[C@@H](C)C(=O)N[C@@H](CCCNC(=N)N)C(=O)N[C@@H](CC(=O)O)C(=O)N[C@@H](Cc1ccccc1)C(=O)N[C@H](C(=O)N[C@@H](CCC(=O)O)C(=O)N[C@@H](Cc1c[nH]c2ccccc12)C(=O)N[C@@H](CC(C)C)C(=O)N[C@H](C(=O)N[C@@H](C)C(=O)NCC(=O)NCC(N)=O)C(C)C)C(C)C)C(=O)O
B5: g680 (peptide)
peptide: HGQGTFTSDYSKYLDSK([γGlu-Palmitoyl])RAEDFVEWLVAGG-NH2
modifications: N-terminus assumed
SMILES: CCCCCCCCCCCCCCCC(=O)N[C@@H](CCC(=O)NCCCC[C@H](NC(=O)[C@H](CO)NC(=O)[C@H](CC(=O)O)NC(=O)[C@H](CC(C)C)NC(=O)[C@H](Cc1ccc(O)cc1)NC(=O)[C@H](CCCCN)NC(=O)[C@H](CO)NC(=O)[C@H](Cc1ccc(O)cc1)NC(=O)[C@H](CC(=O)O)NC(=O)[C@H](CO)NC(=O)[C@@H](NC(=O)[C@H](Cc1ccccc1)NC(=O)[C@@H](NC(=O)CNC(=O)[C@H](CCC(N)=O)NC(=O)CNC(=O)[C@@H](N)Cc1c[nH]cn1)[C@@H](C)O)[C@@H](C)O)C(=O)N[C@@H](CCCNC(=N)N)C(=O)N[C@@H](C)C(=O)N[C@@H](CCC(=O)O)C(=O)N[C@@H](CC(=O)O)C(=O)N[C@@H](Cc1ccccc1)C(=O)N[C@H](C(=O)N[C@@H](CCC(=O)O)C(=O)N[C@@H](Cc1c[nH]c2ccccc12)C(=O)N[C@@H](CC(C)C)C(=O)N[C@H](C(=O)N[C@@H](C)C(=O)NCC(=O)NCC(N)=O)C(C)C)C(C)C)C(=O)O
B6: g660 (peptide)
peptide: HGQGTFTSDYSKYLDSK([γGlu-Palmitoyl])RARDFVEWLVAGG-NH2
modifications: N-terminus assumed
SMILES: CCCCCCCCCCCCCCCC(=O)N[C@@H](CCC(=O)NCCCC[C@H](NC(=O)[C@H](CO)NC(=O)[C@H](CC(=O)O)NC(=O)[C@H](CC(C)C)NC(=O)[C@H](Cc1ccc(O)cc1)NC(=O)[C@H](CCCCN)NC(=O)[C@H](CO)NC(=O)[C@H](Cc1ccc(O)cc1)NC(=O)[C@H](CC(=O)O)NC(=O)[C@H](CO)NC(=O)[C@@H](NC(=O)[C@H](Cc1ccccc1)NC(=O)[C@@H](NC(=O)CNC(=O)[C@H](CCC(N)=O)NC(=O)CNC(=O)[C@@H](N)Cc1c[nH]cn1)[C@@H](C)O)[C@@H](C)O)C(=O)N[C@@H](CCCNC(=N)N)C(=O)N[C@@H](C)C(=O)N[C@@H](CCCNC(=N)N)C(=O)N[C@@H](CC(=O)O)C(=O)N[C@@H](Cc1ccccc1)C(=O)N[C@H](C(=O)N[C@@H](CCC(=O)O)C(=O)N[C@@H](Cc1c[nH]c2ccccc12)C(=O)N[C@@H](CC(C)C)C(=O)N[C@H](C(=O)N[C@@H](C)C(=O)NCC(=O)NCC(N)=O)C(C)C)C(C)C)C(=O)O
B7: g835 (peptide)
peptide: HSQGTFTSDYSEYLDSK([γGlu-Palmitoyl])RARDFVEWLVAGG-NH2
modifications: N-terminus assumed
SMILES: CCCCCCCCCCCCCCCC(=O)N[C@@H](CCC(=O)NCCCC[C@H](NC(=O)[C@H](CO)NC(=O)[C@H](CC(=O)O)NC(=O)[C@H](CC(C)C)NC(=O)[C@H](Cc1ccc(O)cc1)NC(=O)[C@H](CCC(=O)O)NC(=O)[C@H](CO)NC(=O)[C@H](Cc1ccc(O)cc1)NC(=O)[C@H](CC(=O)O)NC(=O)[C@H](CO)NC(=O)[C@@H](NC(=O)[C@H](Cc1ccccc1)NC(=O)[C@@H](NC(=O)CNC(=O)[C@H](CCC(N)=O)NC(=O)[C@H](CO)NC(=O)[C@@H](N)Cc1c[nH]cn1)[C@@H](C)O)[C@@H](C)O)C(=O)N[C@@H](CCCNC(=N)N)C(=O)N[C@@H](C)C(=O)N[C@@H](CCCNC(=N)N)C(=O)N[C@@H](CC(=O)O)C(=O)N[C@@H](Cc1ccccc1)C(=O)N[C@H](C(=O)N[C@@H](CCC(=O)O)C(=O)N[C@@H](Cc1c[nH]c2ccccc12)C(=O)N[C@@H](CC(C)C)C(=O)N[C@H](C(=O)N[C@@H](C)C(=O)NCC(=O)NCC(N)=O)C(C)C)C(C)C)C(=O)O

In the first assay the target is human glucagon receptor (human, UniProt P47871 26-477). The assay is described as follows: cell-based or functional assay.
Chain of human glucagon receptor (P47871 26-477): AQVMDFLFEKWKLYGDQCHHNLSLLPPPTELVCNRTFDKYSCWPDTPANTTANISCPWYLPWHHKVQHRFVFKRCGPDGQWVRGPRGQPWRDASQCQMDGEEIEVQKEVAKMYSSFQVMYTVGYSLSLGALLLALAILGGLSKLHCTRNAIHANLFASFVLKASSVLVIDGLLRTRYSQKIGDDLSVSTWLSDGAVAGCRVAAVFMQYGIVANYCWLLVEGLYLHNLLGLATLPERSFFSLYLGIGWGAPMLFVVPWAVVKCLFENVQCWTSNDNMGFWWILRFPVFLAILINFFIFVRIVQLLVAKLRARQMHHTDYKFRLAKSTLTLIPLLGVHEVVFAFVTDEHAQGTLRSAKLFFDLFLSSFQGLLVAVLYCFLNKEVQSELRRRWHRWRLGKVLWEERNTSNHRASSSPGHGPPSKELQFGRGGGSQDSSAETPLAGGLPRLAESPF
B1 yielded a cAMP EC50 (assay 1) of 82.1 nM.
The molecule B2 displayed a cAMP EC50 (assay 1) of 39.9 nM.
Same read-out and setting: the figure for B3 is 0.00547 nM; for B4 it is 0.00465 nM; for B5 it is 3.68 nM.
In turn, B6 returned a cAMP EC50 (assay 1) of 1.52 nM.
B7 displayed a cAMP EC50 (assay 1) of 0.424 nM.

The target in a further assay is human GLP-1 receptor (human, UniProt P43220 24-463). The assay can be described thus: cell-based or functional assay.
Chain of human GLP-1 receptor (P43220 24-463): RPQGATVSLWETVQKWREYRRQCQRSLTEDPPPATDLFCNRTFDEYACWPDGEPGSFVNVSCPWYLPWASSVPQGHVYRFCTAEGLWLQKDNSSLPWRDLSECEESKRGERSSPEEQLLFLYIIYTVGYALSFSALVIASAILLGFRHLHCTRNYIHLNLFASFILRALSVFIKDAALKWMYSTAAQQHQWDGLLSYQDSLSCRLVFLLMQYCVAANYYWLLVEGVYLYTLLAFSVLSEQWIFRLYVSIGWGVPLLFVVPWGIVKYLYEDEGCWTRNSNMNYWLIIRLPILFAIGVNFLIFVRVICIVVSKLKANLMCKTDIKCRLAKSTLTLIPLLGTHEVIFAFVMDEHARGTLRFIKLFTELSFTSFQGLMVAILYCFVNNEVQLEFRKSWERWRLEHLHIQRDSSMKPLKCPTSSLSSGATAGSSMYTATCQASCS
For B1, the cAMP EC50 (assay 1) turned out to be 0.244 nM.
Molecule B2 returned a cAMP EC50 (assay 1) of 0.283 nM.
The same measure, in the same setting: the result for B3 reads 0.0666 nM; that for B4, 0.0702 nM.
With B5, the cAMP EC50 (assay 1) is 0.195 nM.
For B6, the cAMP EC50 (assay 1) was found to be 1.06 nM.
Turning to B7, the cAMP EC50 (assay 1) is 0.191 nM.

A further assay addresses T1, human glucose-dependent insulinotropic peptide (gastric inhibitory polypeptide) receptor (human). The assay is described as follows: cell-based or functional assay.
With B1, the cAMP EC50 (assay 1) is 82.1 nM.
On to B2, for which the cAMP EC50 (assay 1) worked out at 124 nM.
As to B3, the cAMP EC50 (assay 1) was 82.8 nM and 124 nM.
In turn, B4 yielded a cAMP EC50 (assay 1) of 47.9 nM.
As to B5, the cAMP EC50 (assay 1) came out at 96.7 nM.
For the molecule B6, the cAMP EC50 (assay 1) worked out at 332 nM.
Regarding B7, the cAMP EC50 (assay 1) came out at 97.2 nM.

These data come from US20190185537A1 (AstraZeneca / MedImmune, published 2019).
